Results: the supplement of paper PMC9233669
Fewer inactive variants are shown than the library holds.

Tests used:
[1] = system: biotinyl-Leu-oxazolone; assay: self-aminoacylation, catalytic enhancement (BLO) (fold over background); higher = more active; k-Seq, kA / k0A0; sequences stand for … in GGGAAUGGAUCCACAUCUACGAAUUC…UUCACUGCAGACUUGACGAAGCUG
Procedure, shortened: (§1)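 Mutagenized RNA pools with a 21-nt variable region (0.43 μM) were reacted with each biotinyl-aminoacyl-oxazolone at 2–1250 μM for 90 minutes at room temperature, in 50 μL HEPES/NaCl/KCl/MgCl2/CaCl2 buffer containing 5% acetonitrile at pH 6.9–7.0. RNA captured on streptavidin was quantified by triplicate qPCR and by Illumina sequencing. The fraction reacted for each sequence was fit to a pseudo-first-order model with bootstrapping, and catalytic enhancement is the median kA divided by the uncatalyzed rate, taken as the low-activity peak of a bimodal Gaussian fit.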

[2] = system: biotinyl-Ile-oxazolone; assay: self-aminoacylation, catalytic enhancement (BIO) (fold over background); higher = more active; k-Seq, kA / k0A0; sequences stand for … in GGGAAUGGAUCCACAUCUACGAAUUC…UUCACUGCAGACUUGACGAAGCUG
Procedure, shortened: as §1

[3] = system: biotinyl-Phe-oxazolone; assay: self-aminoacylation, catalytic enhancement (BFO) (fold over background); higher = more active; k-Seq, kA / k0A0; sequences stand for … in GGGAAUGGAUCCACAUCUACGAAUUC…UUCACUGCAGACUUGACGAAGCUG
Procedure, shortened: as §1

[4] = system: biotinyl-Trp-oxazolone; assay: self-aminoacylation, catalytic enhancement (BWO) (fold over background); higher = more active; k-Seq, kA / k0A0; sequences stand for … in GGGAAUGGAUCCACAUCUACGAAUUC…UUCACUGCAGACUUGACGAAGCUG
Procedure, shortened: as §1

[5] = system: biotinyl-Met-oxazolone; assay: self-aminoacylation, catalytic enhancement (BMO) (fold over background); higher = more active; k-Seq, kA / k0A0; sequences stand for … in GGGAAUGGAUCCACAUCUACGAAUUC…UUCACUGCAGACUUGACGAAGCUG
Procedure, shortened: as §1

[6] = system: biotinyl-Val-oxazolone; assay: self-aminoacylation, catalytic enhancement (BVO) (fold over background); higher = more active; k-Seq, kA / k0A0; sequences stand for … in GGGAAUGGAUCCACAUCUACGAAUUC…UUCACUGCAGACUUGACGAAGCUG
Procedure, shortened: as §1

| Sequence | self-aminoacylation [1] | self-aminoacylation [2] | self-aminoacylation [3] | self-aminoacylation [4] | self-aminoacylation [5] | self-aminoacylation [6] |
| --- | --- | --- | --- | --- | --- | --- |
| AUUCACCUAAGUCUUCGGGUG [Fam2.2 aminoacylation ribozyme variant] | 6.66 | 3.49 | 33.4 | 5.42 | 4.98 | 3.85 |
| AUUCACCUACGCCAUCGGGUG [Fam2.2 aminoacylation ribozyme variant] | 4.34 | 2.1 | 21.9 | 3.52 | 3.6 | 2.11 |
| AUUCACCUACGUCAUCGAGUG [Fam2.2 aminoacylation ribozyme variant] | 4.08 | 2.45 | 12.5 | 3.77 | 4.25 | 2.71 |
| AUUCACCUACGUCAUCGGGCG [Fam2.2 aminoacylation ribozyme variant] | 3.26 | 2.62 | 16.3 | 2.75 | 3.42 | 2.97 |
| AUUCACCUACGUCAUCGUGUG [Fam2.2 aminoacylation ribozyme variant] | 0.86 | 0.632 | 0.74 | 0.425 | 0.602 | 0.818 |
| AUUCACCUACGUCAUGGGGUG [Fam2.2 aminoacylation ribozyme variant] | 2.62 | 1.79 | 11 | 1.67 | 2.5 | 2.01 |
| AUUCACCUACGUCCUCGGGUG [Fam2.2 aminoacylation ribozyme variant] | 7.17 | 2.7 | 33.2 | 4.21 | 4.71 | 2.12 |
| AUUCACCUACGUCUUCGGGUG [Fam2.2 aminoacylation ribozyme variant] | 4.28 | 2.44 | 24 | 3.34 | 3.36 | 2.81 |
| AUUCACCUAGAUCAUUGGGUG [Fam2.2 aminoacylation ribozyme variant] | 3.94 | 2.15 | 18 | 3.54 | 3.71 | 1.91 |
| AUUCACCUAGCUCAUCGGGUA [Fam2.2 aminoacylation ribozyme variant] | 2.41 | 2.08 | 11.2 | 2.53 | 2.03 | 2.54 |
| AUUCACCUAGGCCAACGGGUG [Fam2.2 aminoacylation ribozyme variant] | 4.01 | 2.23 | 14.5 | 3.02 | 2.61 | 2.04 |
| AUUCACCUAGGCCACCGGGUG [Fam2.2 aminoacylation ribozyme variant] | 6.51 | 3.83 | 13.6 | 4.16 | 5.04 | 3.27 |
| AUUCACCUAGGCCAGCGGGUG [Fam2.2 aminoacylation ribozyme variant] | 4.78 | 3.59 | 24.8 | 3.78 | 4.21 | 4.07 |
| AUUCACCUAGGCCAUCGGGCG [Fam2.2 aminoacylation ribozyme variant] | 3.11 | 2.65 | 15.5 | 5.38 | 3.01 | 3.17 |
| AUUCACCUAGGCCAUCGGUUG [Fam2.2 aminoacylation ribozyme variant] | 1.32 | 1.08 | 8.73 | 0.695 | 1.05 | 1.04 |
| AUUCACCUAGGGCACCGGGUG [Fam2.2 aminoacylation ribozyme variant] | 4.66 | 3.58 | 23.3 | 3.62 | 4.01 | 3.88 |
| AUUCACCUAGGGCAUCGGGUU [Fam2.2 aminoacylation ribozyme variant] | 2.37 | 1.91 | 5.04 | 2.78 | 2.08 | 2.01 |
| AUUCACCUAGGGCAUCGGUUG [Fam2.2 aminoacylation ribozyme variant] | 1.12 | 1.02 | 0.577 | 0.909 | 1.05 | 0.969 |
| AUUCACCUAGGGUAUCGGGUG [Fam2.2 aminoacylation ribozyme variant] | 8.63 | 3.84 | 50.9 | 6.31 | 6.75 | 3.99 |
| AUUCACCUAGGUAAUCGCGUG [Fam2.2 aminoacylation ribozyme variant] | 2.8 | 1.75 | 16.1 | 2.74 | 2.51 | 2.15 |
| AUUCACCUAGGUAAUCGGAUG [Fam2.2 aminoacylation ribozyme variant] | 0.546 | 0.61 | 0.527 | 0.594 | 0.585 | 0.524 |
| AUUCACCUAGGUAAUCGGCUG [Fam2.2 aminoacylation ribozyme variant] | 1.31 | 0.944 | 0.486 | 1.2 | 1.23 | 1.02 |
| AUUCACCUAGGUAAUCGGGUU [Fam2.2 aminoacylation ribozyme variant] | 1.17 | 0.997 | 0.331 | 0.977 | 1.09 | 1.16 |
| AUUCACCUAGGUAAUUGGGUG [Fam2.2 aminoacylation ribozyme variant] | 6.35 | 2.94 | 32.1 | 4.01 | 4.54 | 2.63 |
| AUUCACCUAGGUCAACGGGGG [Fam2.2 aminoacylation ribozyme variant] | 2.19 | 1.75 | 12.7 | 2.31 | 1.83 | 1.84 |
